Results: PMC9159282, “Structural basis of human LRG1 recognition by Magacizumab, a humanized monoclonal antibody with therapeutic potential” (Acta Crystallographica. Section D, Structural Biology, 2022)

Target: T1, 15-amino-acid peptide corresponding to the epitope in LRG1 (human)
T1 construct: leucine-rich alpha-2-glycoprotein 1 (LRG1), human; Gln5Pep is Gln225 of LRG1
T1 chain: GNKLQVLGKDLLLPQ
Experiment: crystal structure; co-crystallization at MagaFab:peptide molar ratios of 1:2 and 1:5, MagaFab 12 mg/ml, 0.2 M NaCl, 0.1 M bis-Tris pH 5.5, 25%(w/v) PEG 3350; two Fab and two peptide molecules per asymmetric unit
Details: both partners purified

B1: Magacizumab Fab fragment (Fab, V domains shown)
VH: QVQLVQSGAEVKKPGSSVKVSCKASGYTFSGYWMNWVRQAPGQGLEWIGQIYPGDGDTNYNGKFKGRVTITADKSTSTAYMELSSLRSEDTAVYYCARSITTVVLDYWGQGTTVTVSS
VL: DIVLTQSPDSLAVSLGERATISCRASQSVSTSGYSFMHWYQQKPGQPPKLLIKYASNLESGVPARFSGSGSGTDFTLTISSLQPEDFATYYCQHSWEMPLTFGQGTKLEIK
notes: heavy (VH) chain of MagaFab is chain B (second copy: chain D) of the deposited structure PDB 7q4q; light (VL) chain of MagaFab is chain A (second copy: chain C) of the deposited structure PDB 7q4q; Fab of a humanized IgG4 derived from the mouse monoclonal antibody 15C4; Observed mass of the Fab 47 461 Da, computed 47 412 Da; also called MagaFab; source: Magacizumab: CHO cell-based expression …
  binding result: binds
